Earlier results in patent US20250197888A1, “NOVEL RECOMBINANT VECTOR AND USE THEREOF” (CELL & BRAIN CO., LTD., priority 2022, published 2025).

Conditions: A168H mutant; Balzarini et al., 2006

**Q.** With “mutant HSV-TK: HSV thymidine kinase in which alanine at position 168 is substituted with histidine” as the substance, how does the “kinase activity relative to wild-type HSV-TK” value read?
**A.** about 4 times
